Source: article PMC13181292 (2026)

How the values were obtained:
[1] = target: CLEC-2 C-type lectin-like domain (Mus musculus) (UniProt Q9JL99); experiment: SPR; conditions: cited from earlier work
[2] = target: CLEC-2 C-type lectin-like domain (Homo sapiens) (UniProt Q9P126); experiment: SPR; conditions: cited from earlier work
[3] = target: the molecule itself; experiment: divalent nanobody Nb2-2 (100 nM)

Sequence of CLEC-2 C-type lectin-like domain (Homo sapiens) (Q9P126 109-217): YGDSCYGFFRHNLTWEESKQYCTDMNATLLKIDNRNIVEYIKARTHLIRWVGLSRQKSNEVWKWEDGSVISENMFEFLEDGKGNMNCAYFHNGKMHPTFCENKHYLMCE
Sequence of CLEC-2 C-type lectin-like domain (Mus musculus) (Q9JL99 109-217): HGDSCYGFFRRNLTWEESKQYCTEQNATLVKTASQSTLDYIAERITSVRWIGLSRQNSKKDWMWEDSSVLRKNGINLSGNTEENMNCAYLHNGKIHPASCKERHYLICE

In the case of “CLEC-2 C-type lectin-like domain (from UniProt Q9JL99)”, the Kd [1] is given as 499 nM.

For “CLEC-2 C-type lectin-like domain (from UniProt Q9P126)”, the Kd [2] is given as 278 nM.

B1: SNAP-tag-GPVI and HaloTag-GPVI coexpressed on CHO-K1 cells (receptor)
chain: QSGPLPKPSLQALPSSLVPLEKPVTLRCQGPPGVDLYRLEKLSSSRYQDQAVLFIPAMKRSLAGRYRCSYQNGSLWSLPSDQLELVATGVFAKPSLSAQPGPAVSSGGDVTLQCQTRYGFDQFALYKEGDPAPYKNPERWYRASFPIITVTAAHSGTYRCYSFSSRDPYLWSAPSDPLELVVTGTSVTPSRLPTEPPSPVAEFSEATAELTVSFTNEVFTTETSRSITASPKESDSPAGPARQYYTKGNLVRICLGAVILIILAGFLAEDWHSRRKRLRHRGRAVQRPLPPLPPLPLTRKSNGGQDGGRQDVHSRGLCS
modifications: SNAP-tag labeled with SNAP-Surface Alexa Fluor-647; HaloTag labeled with Janelia Fluor-549
B1 showed a koff [3] of 0.95 s⁻¹.
